Data on 1 protein can be found in PMC3166062, “Self-Association of an Activating Natural Killer Cell Receptor, KIR2DS1” (PLoS ONE, 2011).

This data set deals with the molecule itself. The data set is described as follows: dynamic light scattering; KIR2DS1 3 µM in 10 mM Tris-HCl, 150 mM sodium chloride, 0.4 mM sodium azide, 25°C; Zetasizer Nano ZS; mean hydrodynamic diameter 320 nm.

B1: extracellular region of KIR2DS1 (domain or fragment)
chain: MAHEGVHRKPSLLAHPGRLVKSEETVILQCWSDVMFEHFLLHREGMFNDTLRLIGEHHDGVSKANFSISRMRQDLAGTYRCYGSVTHSPYQLSAPSDPLDIVIIGLYEKPSLSAQPGPTVLAGENVTLSCSSRSSYDMYHLSREGEAHERRLPAGTKVNGTFQANFPLGPATHGGTYRCFGSFRDSPYEWSKSSDPLLVSVTLVPRGS
notes: No cleavage of the tag is described; also called extracellular portion of KIR2DS1
With B1, the binding result was “binds”.
